Earlier results as cited in paper PMC7710720.

Biological target: Neurotensin (Homo sapiens) (UniProt P30990)

Neurotensin receptor 2 (from UniProt O95665)
Kd: 6 nM
